± gives the standard deviation of the averaged measurements.
Assay: total protein half-life in vivo (active degradation + dilution); higher = more stable protein
[1] = E. coli NCM3722 delta-clpP delta-lon delta-hslV, growth: N-lim chemostat, doubling time 6 h
[2] = E. coli NCM3722 delta-clpP, growth: N-lim chemostat, doubling time 6 h
[3] = E. coli NCM3722 delta-hslV, growth: N-lim chemostat, doubling time 6 h
[4] = E. coli NCM3722 delta-lon, growth: N-lim chemostat, doubling time 6 h
[5] = E. coli NCM3722 delta-smpB, growth: N-lim chemostat, doubling time 6 h
[6] = wild type E. coli NCM3722, growth: C-lim chemostat, doubling time 3 h
[7] = wild type E. coli NCM3722, growth: C-lim chemostat, doubling time 6 h
[8] = wild type E. coli NCM3722, growth: N-lim chemostat, doubling time 6 h
[9] = wild type E. coli NCM3722, growth: N-lim chemostat, doubling time 12 h
[10] = wild type E. coli NCM3722, growth: P-lim chemostat, doubling time 6 h
[11] = wild type E. coli NCM3722, growth: P-lim chemostat, doubling time 12 h
[12] = wild type E. coli NCM3722, growth: C-lim chemostat, doubling time 12 h

Row | Sequence | total protein half-life in vivo [1] [h] | total protein half-life in vivo [2] [h] | total protein half-life in vivo [3] [h] | total protein half-life in vivo [4] [h] | total protein half-life in vivo [5] [h] | total protein half-life in vivo [6] [h] | total protein half-life in vivo [7] [h] | total protein half-life in vivo [8] [h] | total protein half-life in vivo [9] [h] | total protein half-life in vivo [10] [h] | total protein half-life in vivo [11] [h] | total protein half-life in vivo [12] [h]
1 | MRLTTKFSAFVTLLTGLTIFVTLLGCSLSFYNAIQYKFSHRVQAVATAIDTHLVSNDFSVLRPQITELMMSADIVRVDLLHGDKQVYTLARNGSYRPVGSSDLFRELSVPLIKHPGMSLRLVYQDPMGNYFHSLMTTAPLTGAIGFIIVMLFLAVRWLQRQLAGQELLETRATRILNGERGSNVLGTIYEWPPRTSSALDTLLREIQNAREQHSRLDTLIRSYAAQDVKTGLNNRLFFDNQLATLLEDQEKVGTHGIVMMIRLPDFNMLSDTWGHSQVEEQFFTLTNLLSTFMMRYPGALLARYHRSDFAALLPHRTLKEAESIAGQLIKAVDTLPNNKMLDRDDMIHIGICAWRSGQDTEQVMEHAESATRNAGLQGGNSWAIYDDSLPEKGRGNVRWRTLIEQMLSRGGPRLYQKPAVTREGQVHHRELMCRIFDGNEEVSSAEYMPMVLQFGLSEEYDRLQISRLIPLLRYWPEENLAIQVTVESLIRPRFQRWLRDTLMQCEKSQRKRIIIELAEADVGQHISRLQPVIRLVNALGVRVAVNQAGLTLVSTSWIKELNVELLKLHPGLVRNIEKRTENQLLVQSLVEACSGTSTQVYATGVRSRSEWQTLIQRGVTGGQGDFFASSQPLDTNVKKYSQRYSV | 6 ± 1.2 | 6.52 ± 0.62 | 6.35 ± 0.42 | 5.67 ± 0.62 | 5.945 ± 0.0086 | 3.44 ± 0.17 | 6.042 ± 0.0062 | 6.45 ± 0.23 | 11.59 ± 0.06 | 5.52 ± 0.13 | 13 ± 0.43 | –
2 | MKTDTPSLETPQAARLRRRQLIRQLLERDKTPLAILFMAAVVGTLVGLAAVAFDKGVAWLQNQRMGALVHTADNYPLLLTVAFLCSAVLAMFGYFLVRKYAPEAGGSGIPEIEGALEDQRPVRWWRVLPVKFFGGLGTLGGGMVLGREGPTVQIGGNIGRMVLDIFRLKGDEARHTLLATGAAAGLAAAFNAPLAGILFIIEEMRPQFRYTLISIKAVFIGVIMSTIMYRIFNHEVALIDVGKLSDAPLNTLWLYLILGIIFGIFGPIFNKWVLGMQDLLHRVHGGNITKWVLMGGAIGGLCGLLGFVAPATSGGGFNLIPIATAGNFSMGMLVFIFVARVITTLLCFSSGAPGGIFAPMLALGTVLGTAFGMVAVELFPQYHLEAGTFAIAGMGALLAASIRAPLTGIILVLEMTDNYQLILPMIITGLGATLLAQFTGGKPLYSAILARTLAKQEAEQLARSKAASASENT | 6.2 ± 0.78 | 6.38 | 6.54 ± 0.83 | 6.03 | 5.82 ± 0.66 | – | 5.8 ± 0.28 | 6.08 ± 0.083 | 11.3 | 6.1 ± 0.11 | 11.3 ± 0.43 | 13.2 ± 3.7
3 | MLSTLRRTLFALLACASFIVHAAAPDEITTAWPVNVGPLNPHLYTPNQMFAQSMVYEPLVKYQADGSVIPWLAKSWTHSEDGKTWTFTLRDDVKFSNGEPFDAEAAAENFRAVLDNRQRHAWLELANQIVDVKALSKTELQITLKSAYYPFLQELALPRPFRFIAPSQFKNHETMNGIKAPIGTGPWILQESKLNQYDVFVRNENYWGEKPAIKKITFNVIPDPTTRAVAFETGDIDLLYGNEGLLPLDTFARFSQNPAYHTQLSQPIETVMLALNTAKAPTNELAVREALNYAVNKKSLIDNALYGTQQVADTLFAPSVPYANLGLKPSQYDPQKAKALLEKAGWTLPAGKDIREKNGQPLRIELSFIGTDALSKSMAEIIQADMRQIGADVSLIGEEESSIYARQRDGRFGMIFHRTWGAPYDPHAFLSSMRVPSHADFQAQQGLADKPLIDKEIGEVLATHDETQRQALYRDILTRLHDEAVYLPISYISMMVVSKPELGNIPYAPIATEIPFEQIKPVKP | 6.58 | 6.35 | > 8 | > 8 | – | – | > 8 | 6.2 | > 16 | 6.61 | – | > 16
4 | MKSLRLMLCAMPLMLTGCSTMSSVNWSAANPWNWFGSSTKVSEQGVGELTASTPLQEQAIADALDGDYRLRSGMKTANGNVVRFFEVMKGDNVAMVINGDQGTISRIDVLDSDIPADTGVKIGTPFSDLYSKAFGNCQKADGDDNRAVECKAEGSQHISYQFSGEWRGPEGLMPSDDTLKNWKVSKIIWRR | 5.96 ± 0.15 | 6.484 ± 0.023 | 7.579 ± 0.065 | – | 6.4 ± 0.55 | 3.24 ± 0.74 | 6.151 ± 0.0073 | 6.63 ± 0.47 | – | 6.68 ± 0.71 | – | 14.8 ± 0.17
5 | MLSYRHSFHAGNHADVLKHTVQSLIIESLKEKDKPFLYLDTHAGAGRYQLGSEHAERTGEYLEGIARIWQQDDLPAELEAYINVVKHFNRSGQLRYYPGSPLIARLLLREQDSLQLTELHPSDYPLLRSEFQKDSRARVEKADGFQQLKAKLPPVSRRGLILIDPPYEMKTDYQAVVSGIAEGYKRFATGIYALWYPVVLRQQIKRMIHDLEATGIRKILQIELAVLPDSDRRGMTASGMIVINPPWKLEQQMNNVLPWLHSKLVPAGTGHATVSWIVPE | 4.85 ± 0.21 | 5.06 ± 0.45 | 4.81 ± 0.14 | 4.96 ± 0.05 | 4.87 ± 0.07 | 3.16 ± 0.27 | 6.11 ± 0.47 | 5.06 ± 0.073 | 8.35 ± 0.22 | 6.55 ± 0.2 | 14 ± 2.8 | 10.7 ± 0.25
6 | MKVSVPGMPVTLLNMSKNDIYKMVSGDKMDVKMNIFQRLWETLRHLFWSDKQTEAYKLLFNFVNNQTGNINASEYFTGAINENEREKFINSLELFNKLKTCAKNPDELVAKGNMRWVAQTFGDIELSVTFFIEKNKICTQTLQLHKGQGNLGVDLRKAYLPGVDMRDCYLGKKTMKGSNDILYERPGWNANLGVLPRTVLPRTVLTRTVLTWTVLP | 4.07 | – | – | – | – | – | – | – | – | – | – | –
7 | MNKILLQCDNLCKRYQEGSVQTDVLHNVSFSVGEGEMMAIVGSSGSGKSTLLHLLGGLDTPTSGDVIFNGQPMSKLSSAAKAELRNQKLGFIYQFHHLLPDFTALENVAMPLLIGKKKPAEINSRALEMLKAVGLDHRANHRPSELSGGERQRVAIARALVNNPRLVLADEPTGNLDARNADSIFQLLGELNRLQGTAFLVVTHDLQLAKRMSRQLEMRDGRLTAELSLMGAE | 6.92 | 6.37 ± 0.67 | – | 6.32 ± 0.21 | – | 3.22 | 6.42 ± 0.012 | 5.78 ± 0.77 | 13.1 ± 1.3 | 5.48 ± 0.27 | – | 10.8 ± 0.94
